Test results taken from patent US20220056139A1.

Target: HLA-DR (human)
Assay: flow cytometry on Raji cells, APC mouse anti-human IgG (FIG. 21B)

fold higher ED50 than chLym-1: 2 fold
B1: huLym-1-B antibody (antibody, human IgG1, V domains shown)
VH: EVQLVESGGGLVQPGRSLRLTCTASGFSLTSYGVHWVRQPPGKGLEWLAVIWSDGSTTYNSALKSRLTISKDNSKSQVYLQMNSLRAEDTAVYYCARHYGSTLAFASWGQGTLVTVSS
VL: DIQMTQSPSSLSASVGDRVTITCRASVNIYSYLAWYQQKPGKAPNLLIYNAKILAEGVPSRFSGSGSGTDFTLTISSLQPEDFASYYCQHHYGTFTFGQGTKVEIK
